Measurements as given in article PMC6637311, “Glyceraldehyde-3-Phosphate Dehydrogenase of Babesia microti Is a Plasminogen- and Actin-Binding Protein” (Frontiers in Veterinary Science, 2019).

System: O=C[C@H](O)COP(=O)(O)O
Assay: purified protein
Settings: 0.5 mM NAD+, 50 mM glycine, 50 mM KH2PO4, 5 mM EDTA, pH 9.5, 25 °C

Substance: rBmGAPDH (Babesia microti strain RI)
- Km: 583 µM
